Reference: CN1660912A

How the values were obtained:
[1] = target: 白细胞介素-8(IL-8), E.Coli表达的基因重组人体单核细胞来源的IL-8, 72个氨基酸 (human) (UniProt P10145); assay: ELISA, plate coated with 1ug/ml IL-8, antibody 30 ng/ml, replicate 2
[2] = target: 白细胞介素-8(IL-8), E.Coli表达的基因重组人体单核细胞来源的IL-8, 72个氨基酸 (human) (UniProt P10145); assay: cell-based or functional assay
[3] = target: 白细胞介素-8(IL-8), E.Coli表达的基因重组人体单核细胞来源的IL-8, 72个氨基酸 (human) (UniProt P10145); assay: ELISA, plate coated with 1ug/ml IL-8, antibody 30 ng/ml, replicate 1
[4] = target: 白细胞介素-8(IL-8), E.Coli表达的基因重组人体单核细胞来源的IL-8, 72个氨基酸 (human) (UniProt P10145); assay: ELISA, plate coated with 1ug/ml IL-8, antibody 15 ng/ml, replicate 2
MCP-3 = MCP-3 (UniProt P80098); assay: ELISA, cross-reaction (Table 1)
Chain of UniProt P80098 (P80098 24-99 limits assumed): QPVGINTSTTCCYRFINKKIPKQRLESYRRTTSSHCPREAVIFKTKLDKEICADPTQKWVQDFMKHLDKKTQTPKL

[5] = target: 白细胞介素-8(IL-8), E.Coli表达的基因重组人体单核细胞来源的IL-8, 72个氨基酸 (human) (UniProt P10145); assay: ELISA, cross-reaction (Table 1)
BSA = BSA (UniProt P02769); assay: ELISA, cross-reaction (Table 1)
Chain of UniProt P02769 (P02769 25-607 limits assumed): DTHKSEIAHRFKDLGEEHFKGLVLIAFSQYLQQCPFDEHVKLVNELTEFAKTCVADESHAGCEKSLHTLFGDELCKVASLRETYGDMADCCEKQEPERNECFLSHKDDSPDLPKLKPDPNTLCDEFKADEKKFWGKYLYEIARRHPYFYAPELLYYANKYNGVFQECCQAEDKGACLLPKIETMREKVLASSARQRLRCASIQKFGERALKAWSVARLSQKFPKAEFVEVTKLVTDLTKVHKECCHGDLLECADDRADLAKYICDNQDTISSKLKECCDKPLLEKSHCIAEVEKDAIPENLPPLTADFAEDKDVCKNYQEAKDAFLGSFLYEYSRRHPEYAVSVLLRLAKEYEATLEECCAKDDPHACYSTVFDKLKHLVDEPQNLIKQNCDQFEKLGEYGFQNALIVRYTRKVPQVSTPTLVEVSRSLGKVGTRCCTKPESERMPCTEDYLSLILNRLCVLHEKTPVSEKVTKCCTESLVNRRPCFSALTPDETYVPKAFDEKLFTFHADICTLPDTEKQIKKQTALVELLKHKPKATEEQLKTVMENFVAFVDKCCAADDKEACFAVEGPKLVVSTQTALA

b-FGF = b-FGF (UniProt P09038); assay: ELISA, cross-reaction (Table 1)
Chain of UniProt P09038 (P09038 143-288 limits assumed): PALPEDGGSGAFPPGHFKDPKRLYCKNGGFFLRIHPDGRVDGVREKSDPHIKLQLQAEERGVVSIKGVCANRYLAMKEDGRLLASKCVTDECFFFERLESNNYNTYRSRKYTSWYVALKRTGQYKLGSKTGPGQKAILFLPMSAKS

GM-CSF = GM-CSF (UniProt P04141); assay: ELISA, cross-reaction (Table 1)
Chain of UniProt P04141 (P04141 18-144 limits assumed): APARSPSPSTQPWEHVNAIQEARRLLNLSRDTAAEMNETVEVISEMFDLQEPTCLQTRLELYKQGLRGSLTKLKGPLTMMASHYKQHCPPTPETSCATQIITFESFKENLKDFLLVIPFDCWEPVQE

HSA = HSA (UniProt P02768); assay: ELISA, cross-reaction (Table 1)
Chain of UniProt P02768 (P02768 25-609): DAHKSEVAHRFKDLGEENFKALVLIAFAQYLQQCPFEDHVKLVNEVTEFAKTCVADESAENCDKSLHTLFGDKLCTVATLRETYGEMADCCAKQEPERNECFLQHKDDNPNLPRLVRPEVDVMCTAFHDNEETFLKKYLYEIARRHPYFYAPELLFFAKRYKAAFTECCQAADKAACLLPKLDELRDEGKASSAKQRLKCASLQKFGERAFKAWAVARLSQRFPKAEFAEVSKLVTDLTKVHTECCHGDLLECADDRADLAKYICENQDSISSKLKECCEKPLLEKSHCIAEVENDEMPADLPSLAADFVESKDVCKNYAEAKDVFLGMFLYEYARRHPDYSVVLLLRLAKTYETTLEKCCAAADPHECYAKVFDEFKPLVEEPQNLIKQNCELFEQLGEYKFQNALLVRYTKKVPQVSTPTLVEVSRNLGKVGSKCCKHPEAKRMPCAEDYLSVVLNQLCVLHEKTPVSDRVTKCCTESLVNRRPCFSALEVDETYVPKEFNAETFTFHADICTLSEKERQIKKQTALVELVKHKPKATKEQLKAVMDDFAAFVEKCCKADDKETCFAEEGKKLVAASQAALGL

MCAF = MCAF (UniProt P13500); assay: ELISA, cross-reaction (Table 1)
Chain of UniProt P13500 (P13500 24-99 limits assumed): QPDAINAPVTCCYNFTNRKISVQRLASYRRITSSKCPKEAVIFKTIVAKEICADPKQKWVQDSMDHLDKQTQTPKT

TNF-α = TNF-α (UniProt P01375); assay: ELISA, cross-reaction (Table 1)
Chain of UniProt P01375 (P01375 77-233 limits assumed): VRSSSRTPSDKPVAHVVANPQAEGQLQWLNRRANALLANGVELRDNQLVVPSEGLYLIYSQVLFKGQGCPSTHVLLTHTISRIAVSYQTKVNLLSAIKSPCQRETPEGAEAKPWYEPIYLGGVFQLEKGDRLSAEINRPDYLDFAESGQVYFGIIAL

M-CSF = target: T1, M-CSF (UniProt P09603); assay: ELISA, cross-reaction (Table 1)
T1 sequence (looked up): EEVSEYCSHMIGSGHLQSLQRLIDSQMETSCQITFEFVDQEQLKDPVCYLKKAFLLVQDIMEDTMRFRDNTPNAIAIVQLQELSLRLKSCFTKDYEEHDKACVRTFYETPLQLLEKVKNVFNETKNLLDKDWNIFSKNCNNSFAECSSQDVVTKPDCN

IL-1β = IL-1β (UniProt P01584); assay: ELISA, cross-reaction (Table 1)
Chain of UniProt P01584 (P01584 117-269 limits assumed): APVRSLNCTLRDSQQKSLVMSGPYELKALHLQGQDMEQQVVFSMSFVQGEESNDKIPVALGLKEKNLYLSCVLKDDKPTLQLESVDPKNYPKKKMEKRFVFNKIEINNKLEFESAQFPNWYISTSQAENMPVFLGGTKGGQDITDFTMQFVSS

IL-16 = IL-16 (UniProt Q14005); assay: ELISA, cross-reaction (Table 1)
Chain of UniProt Q14005 (Q14005 1212-1332 limits assumed): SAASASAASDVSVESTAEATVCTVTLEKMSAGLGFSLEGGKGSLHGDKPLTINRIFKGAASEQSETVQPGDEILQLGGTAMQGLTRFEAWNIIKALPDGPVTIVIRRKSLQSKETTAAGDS

IL-7 = target: T2, IL-7 (UniProt P13232); assay: ELISA, cross-reaction (Table 1)
T2 sequence (looked up): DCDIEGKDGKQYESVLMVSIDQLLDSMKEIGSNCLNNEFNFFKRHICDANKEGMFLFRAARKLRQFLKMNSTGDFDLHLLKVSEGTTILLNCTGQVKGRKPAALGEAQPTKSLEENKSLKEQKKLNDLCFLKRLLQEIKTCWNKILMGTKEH

TGF-β = assay: ELISA, cross-reaction (Table 1)
EGF = EGF (UniProt P01133); assay: ELISA, cross-reaction (Table 1)
Chain of UniProt P01133 (P01133 971-1023 limits assumed): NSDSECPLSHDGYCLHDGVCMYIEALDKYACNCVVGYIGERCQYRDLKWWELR

[6] = target: 白细胞介素-8(IL-8), E.Coli表达的基因重组人体单核细胞来源的IL-8, 72个氨基酸 (human) (UniProt P10145); assay: ELISA, plate coated with 1ug/ml IL-8, antibody 3 ng/ml, replicate 2
GCP2 = GCP2 (UniProt P80162); assay: ELISA, cross-reaction with IL-8 homologues (Table 2)
Chain of UniProt P80162 (P80162 38-114 limits assumed): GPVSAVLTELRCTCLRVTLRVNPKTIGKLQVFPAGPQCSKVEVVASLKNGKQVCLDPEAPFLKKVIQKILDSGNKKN

GROα = GROα (UniProt P09341); assay: as above
Chain of UniProt P09341 (P09341 35-107 limits assumed): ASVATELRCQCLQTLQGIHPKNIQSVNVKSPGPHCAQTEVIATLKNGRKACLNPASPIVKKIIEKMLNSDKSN

[7] = target: 白细胞介素-8(IL-8), E.Coli表达的基因重组人体单核细胞来源的IL-8, 72个氨基酸 (human) (UniProt P10145); assay: as above
ENA78 = target: T3, ENA78 (UniProt P42830); assay: as above
T3 sequence (looked up): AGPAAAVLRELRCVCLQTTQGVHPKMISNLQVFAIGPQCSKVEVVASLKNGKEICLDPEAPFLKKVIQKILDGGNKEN

NAP-2 = target: T4, NAP-2 (UniProt P02775); assay: as above
T4 sequence (looked up): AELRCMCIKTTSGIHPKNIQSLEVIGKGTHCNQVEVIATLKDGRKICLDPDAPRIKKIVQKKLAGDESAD

PF-4 = target: T5, PF-4 (UniProt P02776); assay: as above
T5 sequence (looked up): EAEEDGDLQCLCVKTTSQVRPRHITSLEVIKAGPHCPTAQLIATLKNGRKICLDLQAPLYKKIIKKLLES

[8] = target: 白细胞介素-8(IL-8), E.Coli表达的基因重组人体单核细胞来源的IL-8, 72个氨基酸 (human) (UniProt P10145); assay: ELISA, plate coated with 1ug/ml IL-8, antibody 15 ng/ml, mean
[9] = target: 白细胞介素-8(IL-8), E.Coli表达的基因重组人体单核细胞来源的IL-8, 72个氨基酸 (human) (UniProt P10145); assay: ELISA, plate coated with 1ug/ml IL-8, antibody 30 ng/ml, mean
[10] = target: 白细胞介素-8(IL-8), E.Coli表达的基因重组人体单核细胞来源的IL-8, 72个氨基酸 (human) (UniProt P10145); assay: ELISA, plate coated with 1ug/ml IL-8, antibody 3 ng/ml, replicate 1
[11] = target: 白细胞介素-8(IL-8), E.Coli表达的基因重组人体单核细胞来源的IL-8, 72个氨基酸 (human) (UniProt P10145); assay: ELISA, plate coated with 1ug/ml IL-8, antibody 3 ng/ml, mean
[12] = target: 白细胞介素-8(IL-8), E.Coli表达的基因重组人体单核细胞来源的IL-8, 72个氨基酸 (human) (UniProt P10145); assay: ELISA, plate coated with 1ug/ml IL-8, antibody 15 ng/ml, replicate 1

Chain of UniProt P10145 (P10145 21-99): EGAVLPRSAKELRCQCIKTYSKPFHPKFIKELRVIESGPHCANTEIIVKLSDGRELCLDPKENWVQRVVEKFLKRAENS

B1: 抗IL-8单克隆抗体 克隆6E6(又称I8-60) (antibody, part only; not given: light variable and mouse constant regions, IgG1, V domains shown, part only)
VH: QVKLQQSGGGLVQPGGSLKFSCAASGFDFSRYWMSWVRQAPGKGLEWIGEINPDSTTINYTPSLKDKFIISRDNAKNTLYLQMSKVRSEDTALYYCARLDGYYGYFDYWGQGTTVTVSS
An OD 450 [1] of 1.27 OD450, a 化学趋向抑制率 (antibody 0.05μg/mL, IL-8 10ng/ml, Ab∶Ag 5∶1) [2] of 17.1% and a 化学趋向抑制率 (antibody 0.5μg/mL, IL-8 10ng/ml, Ab∶Ag 50∶1) [2] of 83.9% were found for B1 in this work. For the same binder, the 化学趋向抑制率 (antibody 5μg/mL, IL-8 10ng/ml, Ab∶Ag 500∶1) [2] was 99.8%, the 化学趋向抑制率 (antibody 50μg/mL, IL-8 10ng/ml, Ab∶Ag 5000∶1) [2] was 118% and the 抑制率(%) (IL-8 20 ng/ml, antibody 0.1 ug/ml) [2] was 48.9%. For the same binder, the 抑制率(%) (IL-8 20 ng/ml, antibody 1 ug/ml) [2] was 81.1%, the 抑制率(%) (IL-8 20 ng/ml, antibody 10 ug/ml) [2] was 91.1% and the 趋化指数 (IL-8 20 ng/ml, antibody 0.1 ug/ml) [2] was 2.24. The 趋化指数 (IL-8 20 ng/ml, antibody 1 ug/ml) [2] was 1.46, the 趋化指数 (IL-8 20 ng/ml, antibody 10 ug/ml) [2] was 1.22 and the OD 450 [3] was 1.09 OD450. The OD 450 [4] was 0.708 OD450, the O.D.值 (MCP-3) was 0.024 OD and the O.D.值 [5] was over 2 OD. For the same binder, the O.D.值 (BSA) was 0.147 OD, the O.D.值 (b-FGF) was 0.027 OD and the O.D.值 (GM-CSF) was 0.037 OD. It also gave an O.D.值 (HSA) of 0.129 OD, an O.D.值 (MCAF) of 0.023 OD and an O.D.值 (TNF-α) of 0.039 OD. The O.D.值 (M-CSF) was 0.044 OD, the O.D.值 (IL-1β) was 0.029 OD and the O.D.值 (IL-16) was 0.044 OD. The O.D.值 (IL-7) was 0.06 OD, the O.D.值 (TGF-β) was 0.021 OD and the O.D.值 (EGF) was 0.044 OD. For the same binder, the OD 450 [6] was 0.377 OD450, the O.D.值 (GCP2) was 0.088 OD and the O.D.值 (GROα) was 0.097 OD. It also gave an O.D.值 [7] of over 2 OD, an O.D.值 (ENA78) of 0.073 OD and an O.D.值 (NAP-2) of 0.031 OD. For the same binder, the O.D.值 (PF-4) was 0.113 OD, the OD 450 平均值 [8] was 0.667 OD450 and the OD 450 平均值 [9] was 1.18 OD450. The OD 450 [10] was 0.352 OD450, the OD 450 平均值 [11] was 0.365 OD450 and the OD 450 [12] was 0.626 OD450.

B2: 抗IL-8嵌合型抗体 (Chimeric anti-IL8 Ab) (antibody, part only; not given: light variable and human constant regions, not shown: a dimerising Fc or GST)
heavy: QVKLQQSGGGLVQPGGSLKFSCAASGFDFSRYWMSWVRQAPGKGLEWIGEINPDSTTINYTPSLKDKFIISRDNAKNTLYLQMSKVRSEDTALYYCARLDGYYGYFDYWGQGTTVTVSS
An OD 450 [1] of 2 OD450, a 抑制率(%) (IL-8 20 ng/ml, antibody 0.1 ug/ml) [2] of 48.2% and a 抑制率(%) (IL-8 20 ng/ml, antibody 1 ug/ml) [2] of 80.2% were found for B2 in this work. The 抑制率(%) (IL-8 20 ng/ml, antibody 10 ug/ml) [2] was 75.1%, the 趋化指数 (IL-8 20 ng/ml, antibody 0.1 ug/ml) [2] was 2.25 and the 趋化指数 (IL-8 20 ng/ml, antibody 1 ug/ml) [2] was 1.48. It also gave a 趋化指数 (IL-8 20 ng/ml, antibody 10 ug/ml) [2] of 1.6, an OD 450 [3] of 1.9 OD450 and an OD 450 [4] of 1.14 OD450. For the same binder, the OD 450 [6] was 0.398 OD450, the OD 450 平均值 [8] was 1.12 OD450 and the OD 450 平均值 [9] was 1.95 OD450. It also gave an OD 450 [10] of 0.406 OD450, an OD 450 平均值 [11] of 0.402 OD450 and an OD 450 [12] of 1.09 OD450.
